{"source": "paper doi:10.1101/2021.02.26.432832", "about": "(bioRxiv, 2021)", "binders": {"B1": {"name": "GST-tagged full-length Ioc4 (natural protein)", "chain": "MSEAIFQPTDIVLAKVKGFSAWPAMIIPNELIPDNILKTKPVSVHKGKSGSDKKANEDIDADMESEARDREQSEEEEDIEDFGESEANPEKFIIYTPVLKFRKNDTLKSTYCVKFFCDDSYIWVKPMDMKILTSEDCRKWLSGKQRKNKKLIPAYEMAMRGKNGIDIWEFVEYGSYGKPDEEEYVEEEEEENEPEKKAIRPTRSSSRQRQKRASETEKSEGGNSNKRKRVTRSTRQQAIDASEEEEEEEEEKVQEAVRKRPQRTKTKKVVVSKTKPNPKTKAKKEKPKPPKPIKYHFEDDEDWSIVGLGPQDLSIEKTMDPIAKKLSQKKNLEKHVEIKLDLEDKLAGINKLLCDVLCSAINQAVSIKDDFEIILDELQIALDTRGSRNEFITIFQSNNSLLLNFRILFNLRKRELNKWDLWDRFQDIFKHIYSYQFIPDTEDWQLEQNMEIEEMDREKPSFSEDVKEEESKVGA"}}, "target": "recombinant, reconstituted histone H3/H4 tetramers (Xenopus laevis, UniProt P84233;P62799)", "test": "pull-down", "data": [{"binder": "B1", "values": [{"measurement": "binding result", "result": "binds"}]}]}
